Source: paper PMC3524233, “Disulfide Bonds within the C2 Domain of RAGE Play Key Roles in Its Dimerization and Biogenesis” (PLoS ONE, 2012)

Key:
[1] = target: the molecule itself; test: non-reducing SDS-PAGE with immunoblot; membrane extracts of transfected CHO-CD14 cells; DTT omitted from the loading buffer, 2% LDS, 80°C for 10 min, NuPAGE 4-12% Bis-Tris gel
[2] = target: the molecule itself; test: non-reducing SDS-PAGE with immunoblot; crude membrane fraction of mouse lung (homogenised with 20 mM N-ethylmaleimide), 15 µg, 4-12% gradient gel, reducing and non-reducing, IB with anti-RAGE; RAGE knockout lung as control

Protein	stoichiometry N [1]	stoichiometry N [2]
RAGE C2 domain-only fragment (residues 235-404) (domain or fragment, UniProt Q15109 235-404, looked up, RAGE C2 domain-only fragment, residues 235-404 (C2 domain with the transmembrane helix and the cytosolic portion); also called C2 fragment; source: CHO-CD14, transfected, expressed on the cell surface, in membrane extracts) LEEVQLVVEPEGGAVAPGGTVTLTCEVPAQPSPQIHWMKDGVPLPLPPSPVLILPEIGPQDQGTYSCVATHSSHGPQESRAVSISIIEPGEEGPTAGSVGGSGLGTLALALGILGGLGTAALLIGVILWQRRQRRGEERKAPENQEEEEERAELNQSEEPEAGESSTGGP	2	–
canonical full-length RAGE from mouse lung (receptor, mouse (endogenous in lung), UniProt Q62151 23-402, looked up, mouse RAGE, the canonical full-length isoform of lung tissue; source: endogenous, crude membrane fraction of wild-type (C57BL/6) mouse lung) GQNITARIGEPLVLSCKGAPKKPPQQLEWKLNTGRTEAWKVLSPQGGPWDSVARILPNGSLLLPATGIVDEGTFRCRATNRRGKEVKSNYRVRVYQIPGKPEIVDPASELTASVPNKVGTCVSEGSYPAGTLSWHLDGKLLIPDGKETLVKEETRRHPETGLFTLRSELTVIPTQGGTHPTFSCSFSLGLPRRRPLNTAPIQLRVREPGPPEGIQLLVEPEGGIVAPGGTVTLTCAISAQPPPQVHWIKDGAPLPLAPSPVLLLPEVGHEDEGTYSCVATHPSHGPQESPPVSIRVTETGDEGPAEGSVGESGLGTLALALGILGGLGVVALLVGAILWRKRQPRREERKAPESQEDEEERAELNQSEEAEMPENGAGGP	–	2
